According to the supplement of paper PMC12764529:
± gives the half width of the 95% confidence interval.

Experiments:
[1] = folding stability dG unfold from trypsin proteolysis; higher = more stable
Outline: (§1)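 Designed mini-proteins with no cysteine and under 80 residues were kept only if AlphaFold2 dimer inter-PAE was above 15. In a PA-tagged cDNA display construct, they were digested with trypsin and chymotrypsin and then sequenced. K50 was inferred by Bayesian fitting of counts, and unfolding free energy was derived per protease or combined against a sequence-predicted unfolded-state K50 and a shared folded-state K50.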

[2] = folding stability dG unfold from chymotrypsin proteolysis; higher = more stable
Outline: as §1

[3] = folding stability dG unfold (combined trypsin and chymotrypsin); higher = more stable
Outline: as §1

Row | Sequence | folding stability dG unfold [1] | folding stability dG unfold [2] | folding stability dG unfold [3]
1 | SAMKLPPGVEAEVLEVTVDEEVTITIKLEDETVVIVNEKTGEVTVIKPGETVTITMKPGEKLRIIVIKPSAG [r14_385_TrROS_Hall] | 3.2 ± 0.28 kcal/mol | 1.65 ± 0.047 kcal/mol | 2.58 ± 0.24 kcal/mol
2 | SAGKFPFMIKIEDKDGKPKDEIPIPAEELQDDPEKFLEIVETIADEFSKDGYRVKIYFPGTGQPIEIPISAG [r14_972_TrROS] | 0.418 ± 0.2 kcal/mol | 1.32 ± 0.15 kcal/mol | 0.859 ± 0.2 kcal/mol
3 | SAGGDWRPVEFTIKILIPKGMTADELIEEIKEIARNLGLTIKPISVEVYPVPNKYYVEINVEIWIPPNSAGG [r13_351_TrROS] | 2.57 ± 0.14 kcal/mol | 4.54 ± 0.19 kcal/mol | 4.17 ± 0.33 kcal/mol
4 | SAGGKSISFGKKAGKEKMKEAIKKGLKNIKIVVFKDGKPEVIEVKADDLDKVFDNIPEDSIVVFEPESAGGS [r16_636_TrMRF] | 1.28 ± 0.06 kcal/mol | 2.19 ± 0.038 kcal/mol | 2.17 ± 0.17 kcal/mol
5 | SAGGSAGGSGKKRKVEIPIFFSGPPEVADNLAKTLAQELGLPPEDVDIEIKVIPIMPPEQMAESAGGSAGGS [r12_1066_TrROS] | 0.477 ± 0.054 kcal/mol | 0.818 ± 0.046 kcal/mol | 0.721 ± 0.076 kcal/mol
6 | SAGGGMVVYVTVPPDDPRVEELKERLAADPRVSDVTVEKVEEYPDTVRLRFTFPGDPAVVAAARALLSAGGS [r16_394_JUSTAS] | 0.995 ± 0.059 kcal/mol | 1.51 ± 0.096 kcal/mol | 1.32 ± 0.053 kcal/mol
7 | SASSSTTTSSGTLEEVLQQVEDYLKANPNTLVTIAPPDGTTTTVDLSYSPSIAVNGDPSGLTTVTITNSSAG [r14_807_JUSTAS] | 1.57 ± 0.057 kcal/mol | 0.932 ± 0.032 kcal/mol | 1.23 ± 0.09 kcal/mol
8 | SAGGSAGGSAGGGSMPVKEEVIVEVDPTEVPVTLVTTTVVKTYPDGSVEETVTVEVKLVSAGGSAGGSAGGS [r10_598_JUSTAS] | 0.818 ± 0.085 kcal/mol | 0.281 ± 0.059 kcal/mol | 0.777 ± 0.18 kcal/mol
9 | SGYVVRIYRPNEKGEPVKIVLPDEEAEELYKELVDEEMSVEEFAERLKKLFPDAKVEVRKAEDIPPEELLSA [r9_1085_TrMRF] | 2.13 ± 0.07 kcal/mol | 1.85 ± 0.023 kcal/mol | 2 ± 0.058 kcal/mol
10 | SAGMKIKVLLVVKADPEELEKLEEILEKIKEESDIKKIEPLAYFPNTGIAVVLVEADPEAFEKILEAAGSAG [r5_193_TrMRF] | 1.78 ± 0.032 kcal/mol | 2.58 ± 0.03 kcal/mol | 2.29 ± 0.095 kcal/mol
11 | SAGGNWPMRIKIEDPGEEKTIPIPITKVEPNPPPGKLMIFWPDGWVLTFDPKNWRIKKIEPMPDPDEMSAGG [r13_636_TrROS] | 0.942 ± 0.084 kcal/mol | 0.822 ± 0.13 kcal/mol | 1.05 ± 0.37 kcal/mol
12 | SAGGSAGGSAGGSPGVGERVVPVEDGVVRVRVFPDFAVVEYENGGVETMTLDDLVRALSSAGGSAGGSAGGS [r4_242_TrMRF] | 0.497 ± 0.064 kcal/mol | 0.65 ± 0.053 kcal/mol | 0.601 ± 0.14 kcal/mol
13 | MMKVKIEVRNEENEEVLTIELEVPEGEELTEEEILDLIAERLGLSKEELRKRVRIEYDEETKRIRIEIRIES [r1_285_TrROS_Hall] | 3.5 ± 0.053 kcal/mol | 2.27 ± 0.036 kcal/mol | 2.87 ± 0.08 kcal/mol
14 | SAGTIKEIAETIAEFMRQNGMNIKVKLTEVDPNDPNYVKVRVEIEMWYYKKNGKPLGPMRHTMTIVIRSAGG [r19_418_TrROS] | 2.84 ± 0.11 kcal/mol | 3.42 ± 0.13 kcal/mol | 2.92 ± 0.29 kcal/mol
15 | SAGGSAGGSSEKAEELLERLRELLPPEEIRRVEVRDGKIVIEVSPEAARRLAEELGLDEIEIVSAGGSAGGS [r12_748_TrROS_Hall] | 2.53 ± 0.09 kcal/mol | 2.22 ± 0.071 kcal/mol | 2.49 ± 0.074 kcal/mol
16 | SAGGMVLVERDGDRLVLLIPFPADEPPTPEEVEAEARAILRELGPDVRIRSVHRLPDGGYLVEAEVDSAGGS [r8_103_TrMRF] | 3.17 ± 0.065 kcal/mol | 3.69 ± 0.038 kcal/mol | 3.56 ± 0.041 kcal/mol
17 | SAGGSAGGSAGKKKIIILINENMKEEEIVDYIKKKYGKNVKIEEIIPISPNIKIIKVIIDSAGGSAGGSAGG [r11_580_TrMRF] | 3.96 ± 0.12 kcal/mol | 4.01 ± 0.17 kcal/mol | 4.02 ± 0.14 kcal/mol
18 | SAGGKVKILKTEVFEEGDYLKIVDFVEVDSLEEIEELVKNGLENVEAEVRLLPDGRLLVVLVAEIPKESAGG [r13_506_TrMRF] | 1.26 ± 0.031 kcal/mol | 1.4 ± 0.026 kcal/mol | 1.36 ± 0.04 kcal/mol
19 | SAGGSAGGSMTAEELAKAFPNLPKEEITEIRVEKNEDGTITVTITVKNKNGEKIEIKVEIKLESAGGSAGGS [r12_1050_TrROS_Hall] | 1.34 ± 0.097 kcal/mol | 2.16 ± 0.067 kcal/mol | 2.03 ± 0.1 kcal/mol
20 | SAGGSVKVELKGDYLVITIPVEVPGDKDKPALLTIVIDLSPNGKPARIEMRSLETGKPLGEFTIDLSAGGSA [r2_412_TrMRF] | 2.14 ± 0.099 kcal/mol | 2.63 ± 0.04 kcal/mol | 2.43 ± 0.07 kcal/mol
21 | SAGGDTIMIPIRGKGSLEQAKEWAKEIAREFYREGWKNIKISVWVYDKENGEPVYRKEAEIPIKPGDSAGGS [r8_33_TrROS] | 1.63 ± 0.11 kcal/mol | 2.14 ± 0.18 kcal/mol | 1.94 ± 0.22 kcal/mol
